# T1: human G-CSF receptor (human, UniProt Q99062 25-836)
# T1 sequence (looked up): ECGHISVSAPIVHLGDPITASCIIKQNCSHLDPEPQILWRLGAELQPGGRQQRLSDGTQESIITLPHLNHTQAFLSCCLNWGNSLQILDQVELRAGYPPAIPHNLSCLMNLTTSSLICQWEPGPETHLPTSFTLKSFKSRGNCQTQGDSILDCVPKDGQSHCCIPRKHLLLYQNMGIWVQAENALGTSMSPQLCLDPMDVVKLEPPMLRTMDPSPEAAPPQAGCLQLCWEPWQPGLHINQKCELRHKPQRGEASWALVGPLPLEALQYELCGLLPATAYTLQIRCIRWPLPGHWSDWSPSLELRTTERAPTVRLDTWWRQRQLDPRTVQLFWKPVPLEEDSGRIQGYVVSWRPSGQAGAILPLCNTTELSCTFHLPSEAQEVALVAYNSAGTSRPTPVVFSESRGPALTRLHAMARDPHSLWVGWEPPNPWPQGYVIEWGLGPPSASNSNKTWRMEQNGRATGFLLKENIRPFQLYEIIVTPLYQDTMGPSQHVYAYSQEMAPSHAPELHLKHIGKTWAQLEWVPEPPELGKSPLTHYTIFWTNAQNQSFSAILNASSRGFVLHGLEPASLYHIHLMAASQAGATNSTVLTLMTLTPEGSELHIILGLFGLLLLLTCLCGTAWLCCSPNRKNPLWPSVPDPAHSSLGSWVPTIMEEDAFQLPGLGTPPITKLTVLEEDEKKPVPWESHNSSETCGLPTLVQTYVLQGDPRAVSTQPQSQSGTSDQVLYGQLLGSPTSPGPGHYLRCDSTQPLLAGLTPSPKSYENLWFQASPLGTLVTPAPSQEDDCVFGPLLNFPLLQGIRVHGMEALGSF
# B1: G-CSF receptor agonist expressed from pMON25183 (ligand)
# chain: ATQGAMPAFASAFQRRAGGVLVASHLQSFLEVSYRVLRHLAQPTPLGPASSLPQSFLLKSLEQVRKIQGDGAALQEKLCATYKLCHPEELVLLGHSLGIPWAPLSSCPSQALQLAGCLSQLHSGLFLYQGLLQALEGISPELGPTLDTLQLDVADFATTIWQQMEELGMAPALQP
# B2: G-CSF receptor agonist expressed from pMON25188 (ligand)
# chain: ASAFQRRAGGVLVASHLQSFLEVSYRVLRHLAQPSGGSGGSQSFLLKSLEQVRKIQGDGAALQEKLCATYKLCHPEELVLLGHSLGIPWAPLSSCPSQALQLAGCLSQLHSGLFLYQGLLQALEGISPELGPTLDTLQLDVADFATTIWQQMEELGMAPALQPTQGAMPAFA
# B3: G-CSF receptor agonist expressed from pMON25182 (ligand)
# chain: AMAPALQPTQGAMPAFASAFQRRAGGVLVASHLQSFLEVSYRVLRHLAQPTPLGPASSLPQSFLLKSLEQVRKIQGDGAALQEKLCATYKLCHPEELVLLGHSLGIPWAPLSSCPSQALQLAGCLSQLHSGLFLYQGLLQALEGISPELGPTLDTLQLDVADFATTIWQQMEELG
# B4: G-CSF receptor agonist expressed from pMON25187 (ligand)
# chain: ATQGAMPAFASAFQRRAGGVLVASHLQSFLEVSYRVLRHLAQPSGGSGGSQSFLLKSLEQVRKIQGDGAALQEKLCATYKLCHPEELVLLGHSLGIPWAPLSSCPSQALQLAGCLSQLHSGLFLYQGLLQALEGISPELGPTLDTLQLDVADFATTIWQQMEELGMAPALQP
# B5: G-CSF receptor agonist expressed from pMON25184 (ligand)
# chain: ASAFQRRAGGVLVASHLQSFLEVSYRVLRHLAQPTPLGPASSLPQSFLLKSLEQVRKIQGDGAALQEKLCATYKLCHPEELVLLGHSLGIPWAPLSSCPSQALQLAGCLSQLHSGLFLYQGLLQALEGISPELGPTLDTLQLDVADFATTIWQQMEELGMAPALQPTQGAMPAFA
# B6: G-CSF receptor agonist expressed from pMON3499 (ligand)
# chain: LLGHSLGIPWAPLSSCPSQALQLAGCLSQLHSGLFLYQGLLQALEGISPELGPTLDTLQLDVADFATTIWQQMEELGMAPALQPTQGAMPAFASAFQRRAGGVLVASHLQSFLEVSYRVLRHLAQPTPLGPASSLPQSFLLKSLEQVRKIQGDGAALQEKLCATYKLCHPEELV
# B7: G-CSF receptor agonist expressed from pMON25186 (ligand)
# chain: AMAPALQPTQGAMPAFASAFQRRAGGVLVASHLQSFLEVSYRVLRHLAQPSGGSGGSQSFLLKSLEQVRKIQGDGAALQEKATYKLCHPEELVLLGHSLGIPWAPLSSCPSQALQLAGCLSQLHSGLFLYQGLLQALEGISPELGPTLDTLQLDVADFATTIWQQMEELG
# B8: G-CSF receptor agonist expressed from pMON3455 (ligand)
# chain: AYKLCHPEELVLLGHSLGIPWAPLSSCPSQALQLAGCLSQLHSGLFLYQGLLQALEGISPELGPTLDTLQLDVADFATTIWQQMEELGMAPALQPTQGAMPAFASAFQRRAGGVLVASHLQSFLEVSYRVLRHLAQPSGGSGGSQSFLLKSLEQVRKIQGDGAALQEKLCAT
# B9: G-CSF receptor agonist expressed from pMON3450 (ligand)
# chain: AYKLCHPEELVLLGHSLGIPWAPLSSCPSQALQLAGCLSQLHSGLFLYQGLLQALEGISPELGPTLDTLQLDVADFATTIWQQMEELGMAPALQPTQGAMPAFASAFQRRAGGVLVASHLQSFLEVSYRVLRHLAQPTPLGPASSLPQSFLLKSLEQVRKIQGDGAALQEKLCAT
# Target: T1, human G-CSF receptor
# Assay: cell-based or functional assay
row,"EC50 (pM), Baf/3-G-CSF cell proliferation assay",Molecule
1,60 pM,native G-CSF (from UniProt P09919 31-204) (ligand)
2,58 pM,B1
3,41 pM,B2
4,38 pM,B3
5,83 pM,B4
6,70 pM,B5
7,137 pM,B6
8,92 pM,B7
9,102 pM,B8
10,121 pM,B9
